Experimental data from paper PMC9018708.

Tests used:
[1] = target: human Heparin Binding EGF Like Growth Factor, overexpressed on ARN8 HBEGFKO cells (human) (UniProt Q99075)
[2] = target: Heparin Binding EGF Like Growth Factor, endogenous on ARN8 cells (human (endogenous in ARN8)) (UniProt Q99075)
[3] = target: Heparin Binding EGF Like Growth Factor (DT receptor) on Vero cells (African green monkey (endogenous in Vero))
[4] = target: Heparin Binding EGF Like Growth Factor (DT receptor) on Vero cells (African green monkey (endogenous in Vero)); remark: listed apart in the source

| Substance | DT sensitivity (EC50), dose titration on +HBEGF ARN8 cells [1] | DT sensitivity (EC50), dose titration on WT ARN8 cells (HBEGFKO cells: N/A) [2] | EC50 of inhibition of protein synthesis (nLucP assay) in Vero cells, overnight (18 h) incubation [3] | EC50 of toxicity toward Vero cells (dose titration) [4] | sensitivity (EC50), dose titration on +HBEGF ARN8 cells [1] | sensitivity (EC50), dose titration on WT ARN8 cells (HBEGFKO cells: 245 nM) [2] | sensitivity (EC50), dose titration on WT ARN8 cells (HBEGFKO cells: 55 nM) [2] |
| --- | --- | --- | --- | --- | --- | --- | --- |
| Diphtheria toxin (from UniProt P00588 33-567) (natural protein) | 0.00043 nM | 0.026 nM | 0.00015 nM |  |  |  |  |
| DT(ATR), DT chimera with the R domain of Albireti Toxin |  |  |  | 12 nM | 608 nM | 169 nM |  |
| DT(PTR), DT chimera with the R domain of Peptono Toxin |  |  |  | 7 nM | 50 nM |  | 25 nM |
